Assay [1] has as its target ClpS (Escherichia coli) (UniProt P0A8Q6). The conditions noted are these: cited from earlier work.
Assay [2] has as its target ClpS (additional molecules) (Escherichia coli) (UniProt P0A8Q6). The conditions noted are these: cited from earlier work.
Assay [3] has as its target full-length Mycobacterium tuberculosis ClpC1 (Mycobacterium tuberculosis H37Rv) (UniProt P9WPC9).
Assay [4] concerns the target T1, full-length Mycobacterium tuberculosis ClpC1 (Mycobacterium tuberculosis H37Rv, UniProt P9WPC9 1-848).
T1 construct: ClpC1 AAA+ ATPase, M. tuberculosis H37Rv, Rv3596c, full length; also called wild-type M. tuberculosis ClpC1; Full-Length ClpC1; not shown: His6-SUMO, N-terminal, cleaved
Description: pull-down. The conditions noted are these: both partners purified.

Bounds are passed on as bounds.

This is an account of results in PMC6274998, “Mycobacterium tuberculosis ClpC1 N-Terminal Domain Is Dispensable for Adaptor Protein-Dependent Allosteric Regulation” (International Journal of Molecular Sciences, 2018).

In general, Kd refers to a measure of binding affinity in units of concentration.

Sequence of full-length Mycobacterium tuberculosis ClpC1 (Mycobacterium tuberculosis H37Rv) (P9WPC9 whole entry): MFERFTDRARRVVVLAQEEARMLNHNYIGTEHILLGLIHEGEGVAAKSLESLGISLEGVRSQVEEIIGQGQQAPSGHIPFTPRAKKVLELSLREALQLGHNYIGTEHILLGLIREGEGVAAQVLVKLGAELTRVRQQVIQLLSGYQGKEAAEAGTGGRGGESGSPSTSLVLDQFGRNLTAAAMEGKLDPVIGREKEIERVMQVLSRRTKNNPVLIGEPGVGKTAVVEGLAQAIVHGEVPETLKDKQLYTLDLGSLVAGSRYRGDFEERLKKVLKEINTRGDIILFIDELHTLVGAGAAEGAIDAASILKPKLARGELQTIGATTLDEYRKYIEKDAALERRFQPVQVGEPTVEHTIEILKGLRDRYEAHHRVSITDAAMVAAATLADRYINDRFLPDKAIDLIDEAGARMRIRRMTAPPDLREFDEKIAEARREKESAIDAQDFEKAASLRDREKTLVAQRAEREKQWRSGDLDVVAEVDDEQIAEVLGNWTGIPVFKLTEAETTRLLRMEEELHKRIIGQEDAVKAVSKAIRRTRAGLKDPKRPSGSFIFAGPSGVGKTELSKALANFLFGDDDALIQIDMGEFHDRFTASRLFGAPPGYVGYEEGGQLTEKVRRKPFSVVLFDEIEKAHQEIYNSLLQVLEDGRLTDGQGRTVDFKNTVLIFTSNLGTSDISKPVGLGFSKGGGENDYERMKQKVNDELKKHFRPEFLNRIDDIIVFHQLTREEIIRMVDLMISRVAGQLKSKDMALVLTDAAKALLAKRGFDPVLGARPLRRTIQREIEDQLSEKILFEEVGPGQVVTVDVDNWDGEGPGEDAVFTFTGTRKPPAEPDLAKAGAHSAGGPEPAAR
T1 sequence (P9WPC9 whole entry): as above
Sequence of ClpS (additional molecules) (Escherichia coli) (P0A8Q6 whole entry): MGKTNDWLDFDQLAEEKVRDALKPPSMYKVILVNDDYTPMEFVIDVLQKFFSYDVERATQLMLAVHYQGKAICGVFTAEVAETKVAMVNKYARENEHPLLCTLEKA
Sequence of ClpS (Escherichia coli) (P0A8Q6 whole entry): as above

Turning to ClpA (from UniProt P0ABH9), the Kd in assay [1] was 40 nM; in assay [2] it was over 700 nM.

B1: Mycobacterium tuberculosis ClpS (His6-SUMO tag removed) (natural protein)
chain: MAVVSAPAKPGTTWQRESAPVDVTDRAWVTIVWDDPVNLMSYVTYVFQKLFGYSEPHATKLMLQVHNEGKAVVSAGSRESMEVDVSKLHAAGLWATMQQDR
Turning to B1, in assay [3], the average binding stoichiometry inferred from k (UF,app) against [ClpS]T/[ClpC1]T, stopped-flow unfolding of SsrA-KaedeRed (ClpC1 subunits per ClpS) worked out at 2 and the inflection point of k (UF,app) against the ratio of total ClpS to total ClpC1 monomer concentration, stopped-flow unfolding of SsrA-KaedeRed ([ClpS]T/[ClpC1]T) was determined as 0.65.

B2: His6-SUMO-ClpS (Mycobacterium tuberculosis ClpS adaptor protein, His6-SUMO fusion) (natural protein)
chain: B1 chain
notes: also called His6-ClpS; His6-tagged ClpS; not shown: His6, N-terminal, kept; SUMO, N-terminal, kept
For the molecule B2, in assay [4], the binding result is reported as “binds”.
